Assay results from the supplement of paper PMC9732359.
± gives the uncertainty stated by the source.

assay: protein stability index of a GFP-peptide fusion (yeast GPS) (PSI 1-4); higher = more stable; sorted into four equal gates, so the index is relative within each strain; details: san1∆
In short: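 The protein stability index combines read frequencies across sorting gates, each weighted by its gate number and then summed. To obtain those frequencies, a pooled yeast library of GFP fusions to tiled 17-residue yeast protein peptides, on a plasmid also expressing Cherry, was grown to mid-log phase in leucine-free medium. The cells were sorted into four equal gates by GFP/Cherry ratio before plasmid amplification by PCR and Illumina sequencing.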

Sequence	protein stability index
QIVKYARKGLTPSQIGV [RPS13]	2.47 ± 0.082

same assay, conditions: ubr1∆

Sequence	protein stability index
PLKTQTKNGTPNPNNMK [GAL11]	2.95 ± 0.043
PLLAQLFKTLFKKLTKD [RPB2]	1.16 ± 0.03
PLLEAKKLVWPLHLIFA [SSN2]	1.19 ± 0.06
PLLSKKERLVRDKKEKK [SMB1]	3.15 ± 0.17
PLSAGFNYGKLPLPPSV [SIN4]	2.93 ± 0.051
PLSGLLFKNYRFNFISK [YMR129W/POM152]	2.25 ± 0.094
PLSNIKALLFFNNEKET [RPN12]	1.13 ± 0.053
PLSVATELMNRSPLVTP [SRP72]	2.03 ± 0.06
PLVQADLYEQIGIDPPR [RPT3]	2.83 ± 0.081
PMDEETKLYFDVNEKIR [RPC25]	3.1 ± 0.1
PMIKAEETPSKTNKISI [NUT1]	2.84 ± 0.051
PMNAPTPAMIPYPGSPM [DSN1]	3.01 ± 0.034
PNCLFILKLLNGFMESA [SOH1]	1.44 ± 0.18
PNGHISTKKIQVATKYA [YMR129W/POM152]	2 ± 0.043
PNGSGKSNVIDSMLFVF [SMC4]	2.96 ± 0.037
PNLATFISSGTSLLDSL [YJL039C/NUP192]	2.1 ± 0.037
PNTKDAMSLYHSPFPFN [PRP8]	2.71 ± 0.036
PNYLHLVSSYLNKSDLL [YML103C/NUP188]	1.8 ± 0.031
PPDIHPNLGPQLWLNSS [GRR1]	3.14 ± 0.067
PPEVTSSNCHVRQKIKT [POP1]	3.01 ± 0.045
PPKEGNYEIVFDTVSNK [YMR129W/POM152]	3 ± 0.1
PPLTSQYSTRHDAPRGL [SWI3]	3.21 ± 0.045
PPNNARRTYNTLEDKFL [ISW2]	1.95 ± 0.035
PPQDAEGWFYKRAASVA [RPS19A]	1.56 ± 0.11
PQEESVSPNISSASPSA [SIR3]	3.03 ± 0.028
PQIAQLPLATQQQVLNK [SNF5]	2.17 ± 0.068
PQIVKLFDISREALSGR [ECM29]	2.95 ± 0.054

Sequence	protein stability index
PQKNLLLKGPASTVAKT [YOR098C/NUP1]	2.83 ± 0.055
PQLTFTHVANFMNDAAA [YML103C/NUP188]	2.95 ± 0.05
PQNGNINNNINIPQQQQ [GAL11]	2.97 ± 0.077
PQNMLFEGCYYTPEESA [RPC25]	2.5 ± 0.12
PQQSRYISFIKDDRFVP [RPN2]	3.11 ± 0.035
PQRCTFAFEAIDPRHLA [POP1]	3.1 ± 0.051
PQVKIREASKDNVDFIL [RPB3]	1.77 ± 0.037
PRGLRSLTTVWAEHLSD [RPL3]	2.72 ± 0.16
PRLDAQAIKEASYVNIP [RPS0B]	2.52 ± 0.031
PRLDDVVVDTVECAQHC [SMC4]	2.75 ± 0.13
PRLDTSKEFSAYVSGLF [YJR042W/NUP85]	3.12 ± 0.13
PRLLGPQLSKAGKFPTP [RPL1A]	2.64 ± 0.035
PRMVRDVFRLARENAPS [RPT3]	2.89 ± 0.097
PRYFSEAINGFKDETIS [SIR3]	2.84 ± 0.048
PRYHSKNSFQQALQMKA [SWP82]	1.45 ± 0.043
PSEDVAALKKTRKAARP [RPL6A]	3.05 ± 0.047
PSESEHPIRVLMASVIL [YDL116W/NUP84]	1.78 ± 0.08
PSFVKSGKLRDYQVQGL [ISW2]	3.31 ± 0.058
PSKTPEVYMRYRNFMVN [SWI3]	1.81 ± 0.062
PSLNNKISDDELERILK [RPB4]	3.21 ± 0.07
PSNESCSPWSLQISDIP [SRB5]	2.91 ± 0.032
PSSSDSNGPRAAKKRRP [RRP6]	3.3 ± 0.062
PSVIHSSVEMLLDVVKG [YDL116W/NUP84]	1.42 ± 0.038
PSYSPTSPGYSPGSPAY [RPO21]	2.02 ± 0.043
PSYVHFKVQIIELLSYL [YML103C/NUP188]	2.04 ± 0.05
PTAKDVEVIKQLSLDAS [GAL11]	2.28 ± 0.073
PTDQNNQSNLNGGNNTQ [SNF2]	3.01 ± 0.063

Sequence	protein stability index
PTIEEDLTRVYKAISAQ [FAS2]	2.32 ± 0.042
PTRIRTKSSKEFFNTLR [RRI2]	2.91 ± 0.11
PTVNRVPNYEVSEKAFL [RPN7]	1.18 ± 0.17
PVEKVQRIAKNDPEYMD [DLS1]	3.31 ± 0.087
PVKQSFIRKYINQKALR [GAL11]	1.77 ± 0.08
PVMADLNGGLQFVPELK [FAS2]	2.01 ± 0.056
PVTIWLFEQIGIRIKGK [SME1]	2.45 ± 0.039
PVTSIPSTNKKLSISNA [GAL11]	2.8 ± 0.058
PWDTSLEVGRRFSPDED [MCD1]	3.41 ± 0.17
QAAAKPSLEKSSFTFGS [YLR335W/NUP2]	2.73 ± 0.075
QAESMKFKLLNGLAIRR [RPS3]	2.58 ± 0.1
QALDAVRMRLAQLTHSL [MED8]	1.5 ± 0.035
QARDNSQVFGVARIYAS [RPS14A]	2.23 ± 0.045
QASGITAGAAANALGGL [SSN3]	2.02 ± 0.058
QAVNNLIKTLSTLHMLG [RPP1]	2.47 ± 0.042
QAYFSRLELPVDFQNDL [BRR2]	2.32 ± 0.044
QCNYSSLVFNRKLAVER [PRE5]	1.67 ± 0.2
QDDIDEMVENSSENNQI [SRP68]	3.35 ± 0.088
QDEVNKGPAIDELSSKE [NNF1]	3.24 ± 0.057
QDKMFVSNPIRKVFKPS [FAS1]	2.68 ± 0.06
QDMEAAKEVYKIHQQLL [GAL11]	3.41 ± 0.12
QDMQLKIWSVKDGSNPR [RPN14]	2.62 ± 0.075
QDPIFGSVLLTLLNFVS [ECM29]	1.41 ± 0.063
QDSMSKGTGEESNDRIN [YGR119C/NUP57]	3.38 ± 0.057
QDSNVMPGSQINSPMPQ [SNF2]	3.12 ± 0.17
QDVLKGSSASSRKAHGL [POP1]	3.14 ± 0.067
QDVQRTCILHGPVAAQF [FAS1]	2.44 ± 0.044

Sequence	protein stability index
QEEGSFEFGNMKATSNT [FAS2]	3.17 ± 0.042
QEFDSELSKEEKERLES [SMC3]	3.06 ± 0.081
QEGIEAIATTVIAHLTV [RET1]	2.01 ± 0.033
QEITTNLENHFKKSKID [SCL1]	3.22 ± 0.063
QELEKRMPMDFKGVIVK [PRE1]	1.81 ± 0.071
QELGFCELLKLTNEDPP [SSN2]	3.02 ± 0.066
QERNKIHQYLFQEGVVV [RPS10B]	1.45 ± 0.037
QFCAFDSSSNTYRSRAQ [SIN4]	2.39 ± 0.057
QFIYAGKKASLNVGNVL [RPL2A]	2.8 ± 0.092
QFSLPNGDNSTTTNTDQ [SNF12]	2.31 ± 0.05
QGISGSQQNIVPNSSDQ [SNF2]	2.95 ± 0.053
QGIVPDIIMNPHGFPSR [RET1]	2.56 ± 0.037
QGKPYISLPKGKGIKLS [RPS4A]	2.45 ± 0.073
QGSVRRLTVSARDAPTK [QCR2]	3.14 ± 0.061
QHLQFNGSSDASSLRFG [YDL088C/ASM4]	1.83 ± 0.038
QIANDPSKKRRRDFGAP [SMD1]	3.25 ± 0.073
QIKGLQWMVSLFNNHLN [SNF2]	1.36 ± 0.058
QILSTVVEDKPLLSKKE [SMB1]	1.48 ± 0.054
QILSVAIPNGIHLQRFD [RPO21]	2.77 ± 0.079
QINQGVPSAKPLILTPP [SNF11]	2.02 ± 0.032
QIPHFNNKILEKCKEIN [BRR2]	2.02 ± 0.14
QIPTPNNTVDPGFDEFQ [CSI1]	2.89 ± 0.039
QIVDIRNKRAVQLPILK [YJL039C/NUP192]	1.92 ± 0.058
QIVKYARKGLTPSQIGV [RPS13]	2.83 ± 0.086
